This note sets out measurements from paper PMC8978339 (Cancer chemotherapy and pharmacology, 2021).

In this assay the target is T1, his-tagged PXRLBD (residues 130-434) (human, UniProt O75469 130-434).
T1 sequence (looked up): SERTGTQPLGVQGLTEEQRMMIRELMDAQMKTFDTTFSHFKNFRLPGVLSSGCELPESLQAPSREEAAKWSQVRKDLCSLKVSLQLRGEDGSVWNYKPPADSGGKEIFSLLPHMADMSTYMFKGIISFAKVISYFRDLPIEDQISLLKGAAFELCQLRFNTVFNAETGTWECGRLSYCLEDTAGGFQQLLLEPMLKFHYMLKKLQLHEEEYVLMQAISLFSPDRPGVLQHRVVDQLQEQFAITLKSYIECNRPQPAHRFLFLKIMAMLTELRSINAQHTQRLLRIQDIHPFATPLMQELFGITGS
Nature of the assay: pull-down.

B1: SRC186 (human SRC-1 fragment, residues 595-780) (domain or fragment, UniProt Q15788 595-780, looked up)
chain: MIQSDNSSSDGKPLDSGLLHNNDRLSDGDSKYSQTSHKLVQLLTTTAEQQLRHADIDTSCKDVLSCTGTSNSASANSSGGSCPSSHSSLTERHKILHRLLQEGSPSDITTLSVEPDKKDSASTSVSVTGQVQGNSSIKLELDASKKKESKDHQLLRYLLDKDEKDLRSTPNLSLDDVKVKVEKKEQ
modifications: biotin (labeled with biotin reagent)
As to B1, the binding result was “binds”.
